Experiment [1] deals with T1, Bovine lung-derived ANP receptor (bovine).
T1 chain: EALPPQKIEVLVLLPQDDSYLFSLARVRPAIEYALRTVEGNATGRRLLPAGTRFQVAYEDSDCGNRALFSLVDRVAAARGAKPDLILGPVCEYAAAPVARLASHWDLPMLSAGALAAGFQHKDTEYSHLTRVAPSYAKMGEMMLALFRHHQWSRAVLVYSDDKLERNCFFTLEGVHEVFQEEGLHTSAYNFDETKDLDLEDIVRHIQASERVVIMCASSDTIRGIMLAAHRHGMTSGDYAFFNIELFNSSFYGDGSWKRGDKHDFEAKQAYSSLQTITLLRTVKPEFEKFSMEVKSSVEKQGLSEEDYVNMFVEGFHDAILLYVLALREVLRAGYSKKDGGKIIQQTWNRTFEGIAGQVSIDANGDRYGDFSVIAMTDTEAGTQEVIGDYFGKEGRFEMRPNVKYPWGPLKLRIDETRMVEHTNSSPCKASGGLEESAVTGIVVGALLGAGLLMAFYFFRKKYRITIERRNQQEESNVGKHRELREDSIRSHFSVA
The experiment in a line: displacement of 125I-rat ANP from bovine lung membrane fraction, filter binding. Background: In a radioligand displacement assay an active substance lowers the binding of a labelled ligand.

Experiment [2] addresses T2, protein-farnesyltransferase derived from bovine brains (bovine, UniProt P29702 2-375; P49355 1-437). The experiment can be described thus: cell-based or functional assay.
Experiment [3] concerns the target T2, protein-farnesyltransferase derived …. The experiment can be described thus: cell-based or functional assay. The source holds these as a separate data set.

[ ]: non-standard residue; d: D form.

Experimental findings from patent publication US6872803 (Kyowa Kirin, dated 2005) are described below.

Usually IC50 stands for the concentration that inhibits the measured activity by half.

In experiment [1], H-FGGRIDRI-NH2 [Compound (g), H-Phe-Gly-Gly-Arg-Ile-Asp-Arg-Ile-NH2] showed an IC50 of 0.0035 µM.

B1: Compound (i), H-Phe-Gly-Gly-D-Arg-Ile-Asp-Arg-Ile-NH2 (peptide)
peptide: H-FGG[dR]IDRI-NH2
SMILES: CC[C@H](C)[C@H](NC(=O)[C@H](CCCNC(=N)N)NC(=O)[C@H](CC(=O)O)NC(=O)[C@@H](NC(=O)[C@@H](CCCNC(=N)N)NC(=O)CNC(=O)CNC(=O)[C@@H](N)Cc1ccccc1)[C@@H](C)CC)C(N)=O
Molecule B1 came in with an IC50 in experiment [1] of 0.21 µM. On to H-SSGCVLS-OH [Compound (e), H-Ser-Ser-Gly-Cys-Val-Leu-Ser-OH], for which the “IC50 (µM), transfer of [3H]-farnesyl diphosphate to Ras protein (v-Ki-Ras p21)” value (shortened to “IC50 (µM), transfer”) in experiment [2] amounted to 10 µM. Take H-SMGLPCVVM-OH [Compound (d), H-Ser-Met-Gly-Leu-Pro-Cys-Val-Val-Met-OH]: the “IC50 (µM), intake of [3H]-farnesyl diphosphate by biotin-lamin-B peptide (SPA enzyme assay kit)” value in experiment [3] stood at 1.2 µM. In addition, the “IC50 (µM), transfer” value in experiment [2] turned out to be 1.6 µM. Take H-SMGLPCIFM-OH [Compound (f), H-Ser-Met-Gly-Leu-Pro-Cys-Ile-Phe-Met-OH]: the “IC50 (µM), transfer” value in experiment [2] was determined as 21 µM. For the molecule H-AFGGRIDRIGAA-NH2 [Compound (h), H-Ala-Phe-Gly-Gly-Arg-Ile-Asp-Arg-Ile-Gly-Ala-Ala-NH2], in experiment [1], the IC50 came to 0.0025 µM.
